The data set concerns the molecule itself. The data set is described as follows: cryo-EM structure; EcFtsZ filaments, 0.5 mg/ml in 50 mM HEPES-KOH, 100 mM potassium acetate, 5 mM magnesium acetate, pH 7.7, 20°C, 0.1 mM GMPCPP; helical reconstruction in RELION.

B1: Full-length, untagged wild-type Escherichia coli FtsZ (natural protein, UniProt P0A9A6 1-383, looked up)
chain: MFEPMELTNDAVIKVIGVGGGGGNAVEHMVRERIEGVEFFAVNTDAQALRKTAVGQTIQIGSGITKGLGAGANPEVGRNAADEDRDALRAALEGADMVFIAAGMGGGTGTGAAPVVAEVAKDLGILTVAVVTKPFNFEGKKRMAFAEQGITELSKHVDSLITIPNDKLLKVLGRGISLLDAFGAANDVLKGAVQGIAELITRPGLMNVDFADVRTVMSEMGYAMMGSGVASGEDRAEEAAEMAISSPLLEDIDLSGARGVLVNITAGFDLRLDEFETVGNTIRAFASDNATVVIGTSLDPDMNDELRVTVVATGIGMDKRPEITLVTNKQVQQPVMDRYQQHGMAPLTQEQKPVAKVVNDNAPQTAKEPDYLDIPAFLRKQAD
notes: also called EcFtsZ; source: E. coli C41(DE3), purified (GTP- and calcium-induced precipitation, anion exchange)
As for B1, the binding result was “binds”.

The values above are taken from PMC5414002 (mBio, 2017).
